According to the DeepSol protein solubility set:

experiment: soluble on expression in E. coli; label from the status in PepcDB or PDB records

| Sequence | soluble on expression in E. coli |
| --- | --- |
| MAHHHHHHMRPHTPAKVATTASDGATTTKTTSHPVLLGCGLNWASFVASHPFEVKELTSVLVGDGSDDDGVPEERDALVQAQLPVASVVTSGATLERVFTEAMVCASARAEVARKVQHIATVWCLHPSSEYVATLCWPMEGGESASTTTAVLKVQTEGGRAPLDLRAVSLHVVDRGSLVFHPEFTRCILAQGAERFMYYVPPNPLEATTALPFMRGLWYNGLFSLLELLRIGPQHVVMLFVLPNGDTRYTLDLAPESPAVPAPSSTHQQGSGALGSAASRNATASLYPWRRQSKVRRVIRSGAYVVVVRDDTAGVVESLQRACSYHGQNKRSTWLNDIFIHLMGQCSRRDILCSADAAASQPAEADKANDVRLLCIELVEKATGEVMAGCCGMAVGCAYHDYTMYTLRQTKDGLGTFLTKLIGEALQRCGYTLWYWGFCVEYMRHFERHFGAVDMPRDVFYRRWSAARDAAPECSIDAYLRSHKGMVPYYEGTSALVKSKP | not soluble |
| MSLGKEAEMNYPTDEKNFFQILEEQLSYFKINKKIKEICIFIINNLDKKGYLELSKIEIKDILEVSNKELEEAFDIIHNLEPYGIGAYSLEECLKIQLKAKKIIEEKLSLFIDNYLYLLADKKYDLIKEKLNINDNILFSYIDIIKSLNPIPSRGYSVGKVRKIIPDVLVEIKKNEIFYEINRASIPQINVKDKIEDKYYKKINEIISCIEKRFETIDKIMKIIIREQKIFFTSQGKKINTLKISDIADKLNLSPSTVSRAVKEKYIKTNFGIISLRKLFNLDSAVFLYQQKILEYIENENKENPISDQDIVNLLEKDGIKIARRTVTKYREKLGYKSSHKRKKYEGHHHHHH | not soluble |
| MITSECIIYLARKYQCKFILLGRSAILATEPEWSIGCVDESELKKRIMQHLIEQQEKPTPIKVQNLYKKICQSREIYQTLADIKQGGGEAEYLSIDVTDTSALKSALAPVVARLGRITGIIHGAGNLADKLIEHKTEQDFQTVYNVKIEGLHSLINCVDIAQLKFIALFSSFVSFYGNVGQSDYSLANEILNKYAYLLQRKYPECHVVSFGWGPWDGGMVTPQLKQLFTQKNIKLIPLRVGAEILAEELTQDHTKVPQLIIMSQGISVLPKAFSPEKHSYRLYRRLTLQGNPFVYDHVIGGNAVLPAVCALAWMTNICEQFYPGYHFLSCQKYKVLKGIVFDDNLANLYCLDLTEVEKSEEEIQLEALIWSETPKGIPLYHYRALINISQKSHAQQALTFEDFNYYESSLSLNPYQEGILFHHQRFRGIQKILEITANKLIASCFLPEISPAEQGQFLTQSFNPYTADMFFQCLLIWVRQTYGLGSLPLELTALKQFYTLPFNQEFLINLSIEEQSETKVVASAIAHDIQGKVYLEATNMQVTSSARLNQLFLNNTVASKNTVCMLEHHHHHH | not soluble |
| MHYFSIHDQSGRHIGFFILLADDESEARPQSGRFAVKLEGGMENHVLSPFGQTEIPQYWRVVKDRIELFFDEAPVGTLRNEYLTVSGQTFVLNDLTGNM | not soluble |
| MAAAENRVQQVKGILTMAINNGTLWQVIDMRNNERLNCVDMAVRAGSETCAMLITKVAREYAKHRPRSEVEKKFDSMPTTEEDVTISLGPKTADTFDDNYVKELVRQSESASGHAVATKKLSREKISNSLAKGNVAAVQGREYLKMVKRSSSAHSRLMSQRTFSVESGSIDSSEPSTPQLTSPPADHGVFSSVGEKIRNIFGKKPPLHTKSLSVVQTDRIAAPAVRSSSISNKPLSYQTSGNSNEEDHLRLPQHSSSSESPPSEGPSNSGLFRWSSKDKPMTSTVSTANGVRLPPLSLRRRTNSDPKNRDFTSLGGDE | not soluble |
| MNSAHRSSLKKRPGPQDDRRVSFASPVSSSQKTAAVTVAAQTKQPAKAKNLRTMHSTPKKSKPAHDVADIISLVSKQSDILDDVSEIEHKMIKQAKMTQDLTMELANSIERIANMALAESKLSDQMEKQSKKLISLEGKTKELVEKANNWSKTLENRVDARSHHSTCLNDVQAAIKIINNAKINNDGFSEDFSAHYDKLLDLVETLEPWADKL | soluble |
| MGSDKIHHHHHHMNRRDLLVGLGAATLVPKASWADAHNPAFLSAAQAPDGNYHLCGLDPRGDVVFSIPLPGRGHAAAAHPTRPEAVAFARRPGRFALILDCVTGQETARLLPPPNRHFYGHGTFSSDGDVLFTTENDLTTLEGRIGLWDAAHGYVRLGDVPSGGIGPHDIARLPGTETLVIANGGIATHPDSGRTPLNPATMRSNLAYMRTDGTLLERVELDVTLRQNSIRHLSIRDDGLVSAGMQWNGAEGEHPPLTLLHRIGAAPRLLAAPTQTHRQLDGYVGSISFDQAGAHVAVTSPRGGTVHIFDVNSGAFAGLITAEDICGLALSHRAGLIATTGQGITGFVAQDDLTQMRHSSWRWDNHIVAI | not soluble |
| MASDESMVPYYQWNFAPVVRGIARTQARVEVLRDGYTVSNELVPSGPFELANLPLGGGSGELKVIIHESDGTKQVFTVPYDTPAVALRKG | soluble |
| MGSDKIHHHHHHMMLVQLRQVGVIRSPYKNFSKAPHQGRFSKETVEIEIFPEFEDGLKDIETCTHLIVLYWLDRANRDALLVVPPHDSREHGVFATRSPHRPNPIGFAVVELLERDGRVLKVKGLDALDGTPVVDIKPYSSTIDSVGNAKIGWFEEANPQSKLTRLLLRAKEFHGHICPFVALGVRMSVIAMEKLGVEEDAMASVGEDILAIVECNNCLTDGVQVATGCTLGNNSLIYLDLGKNALTIVRRKDWKGVRVYVNAENVRKYFSKEALELFNKVIVRREGSEEDAKRLSEFWEETGWKMLEIPEEEFKVEFVEVQPIERAPIFENKRCEKCGELAMATRVKDGLCLRCAGSYYAVVGRGIVKFDGEMREVV | not soluble |
| MAVPQLYYFNLRGFGEYIRLLFLDNGIQFEDIRFDYEGKEWQEFKKGMLLGQLPCLKVDRQEIVQTGAIMRHLGRVHEKNLARNFNFSKKYLMGKLTFLEKCGLNGSNEQEATFLDMFFEGVRDVRWKYVRSSRTLKSFWERMWKRPNLNAYLEKRKADKVRINGSDKGMN | not soluble |
| MDTGELHDLTVKGAVVTQLERCEVACQRLFQNLALLGLELQNSESITEGVCDSKAASDLGSSVELLENEERALRLCVDRFVLELRQVENLAKTLDGIREEEERILSLEQRSIEQAERCFYLWNDAREMLRGTRLTSIKEVLESAARYPRIPSWTPLPTSN | not soluble |
| MAETEILKCIGCGAPLQSEDLDAPGYVPESSLYKEDVICKRCFRLKNYNEVQDVGLDSEDFLNLLNGLADKKGIVVNVVDVFDFEGSFINAIKRIVGNKQIILVGNKLDLLPKQINKRRVKEWLKKTARKYGLDAEDVILISAEKNEGIEDLLNAINTLRNNDDVYIVGTTNVGKSTLINKLIERSVGEKNVVTTSRFPGTTLDMIDIPLDDTSFMYDTPGVIQEHQMTHYVTEKELKTIMPKKEVKQRVYQLNEGQTLFFGGLARIDYISGGKRPLVCYFSNDLNIHRTKTENANELWRNQLGDVLSPPNNPDHFDLQNVKAVRLETGKEKRDVMISGLGFITIDEGAKIIVRVPKNVDVVLRNSIMLEHHHHHH | not soluble |
| MSLARARMKERGVEVSDIAELVFFLQKKYHPDLTIDECTLNVNRVLAKREVQNAILTGIELDVLAEQKKLSEPLQTMLEIDESLYGVDEVLAFSIVNIYGSIGFTNYGYIDKEKPGILKRLNDKSTGECHTFLDDIVGAISAAASSRLAHREGHHHHHH | not soluble |
| QKIEKQYDADLEQILIQWITTQCRKDVGRPQPGRENFQNWLKDGTVLCELINALYPEGQAPVKKIQASTMAFKQMEQISQFLQAAERYGINTTDIFQTVDLWEGKNMACVQRTLMNLGGLAVARDDGLFSGDPNWFPKKSKE | soluble |
| MIVNAFYNEKGVGDTLLIETGEVTFENREWERRGDVARIFDRETKQVAGFNIFNSSKYFDITANGKVDLTEELVALMNQVIEKAGFEPEIVADLTPKFVVGYVESKEKHPNADKLNVCQINVGGEVLQIVCGAPNIDAGQKVVVAKIGAVMPSGLIIKPSNLRGEDSFGMVCAARELAIPNAPTEKGILVLEDSATPGEEFPVNFLEHHHHHH | not soluble |
| MSKAKAPINTDELKQKYGRVYEIRIEGLEYENGEEAEFVFYFTRPKVSDISRFTKELNSKPDMAMKNLTFSCIVPEQEEELRQAAEEFPGLTFNTASRLMEIVGASAATSLKKL | soluble |
| MGSDKIHHHHHHMTKIGEKRYIFYLTNTKIDQSIMLSELKTFIAVSQYGTFSGAGARIGLTQSAVSAQMQRLEEELGFALFDRTGRSATLNDAGRETLALAEEMMTLYARLSERGAVAAESGMLRVGAIASAQVSFLADALARFRDDRPGWRIRVVPGVSLGLLGQVDSGELDLAVIIKPPFALPSELEWRTLVTEPFVLLVPKALVRGKGNARSWRELLRSEPFIRYDRTSFGGRLVDRFLRRSRLNVHDVIELDELQGIVQLVARGIGVALIPDSAGLGKWPAGVAALELGEATFQREIGLVQRPRHSRQAVAGVLADCIGTAAGV | not soluble |
| MDNEKLIREARRMEDVQQLKMQIPKPVDKKPRPPPSENNLKLISCEETCMDETLKNSSKPRMIYNKQLGRAESIDFDVPSLSYESSTFKKSNNSSGGALVLDNHYLINNDDGTVKKLPMKVYVKQRLEDGSLDVQLVFFDENSQKVMDISMLVNGKKIRNVQFCGKDGKLVN | not soluble |
| MTHRPAPDDMAELIYTSGTTGNPKGVILTHRNLVANILQVNRHIPVVTPDFSFLSLLPLSHMFEQMGGFFTPLYRGAAIVYIRTLKPSAIMEALGEEDIYAIIAVPRLLQLLKGSVERELEAKGLGSIFRWLLKVGERMSRGGRSVLFRPIQRKFGRNFALFVSGGAPLDPEVFRFWNGLGFRVVEGYGLTECSPVLTANTMERQVMGSVGLEHHHHHH | soluble |
| MSNVQEWQQLANKELSRREKTVDSLVHQTAEGIAIKPLYTEADLDNLEVTGTLPGLPPYVRGPRATMYTAQPWTIRQYAGFSTAKESNAFYRRNLAAGQKGLSVAFDLATHRGYDSDNPRVAGDVGKAGVAIDTVEDMKVLFDQIPLDKMSVSMTMNGAVLPVLAFYIVAAEEQGVTPDKLTGTIQNDILKEYLCRNTYIYPPKPSMRIIADIIAWCSGNMPRFNTISISGYHMGEAGANCVQQVAFTLADGIEYIKAAISAGLKIDDFAPRLSFFFGIGMDLFMNVAMLRAARYLWSEAVSGFGAQDPKSLALRTHCQTSGWSLTEQDPYNNVIRTTIEALAATLGGTQSLHTNAFDEALGLPTDFSARIARNTQIIIQEESELCRTVDPLAGSYYIESLTDQIVKQARAIIQQIDEAGGMAKAIEAGLPKRMIEEASAREQSLIDQGKRVIVGVNKYKLDHEDETDVLEIDNVMVRNEQIASLERIRATRDDAAVTAALNALTHAAQHNENLLAAAVNAARVRATLGEISDALEVAFDRYLVPSQCVTGVIAQSYHQSEKSASEFDAIVAQTEQFLADNGRRPRILIAKMGQDGHDRGAKVIASAYSDLGFDVDLSPMFSTPEEIARLAVENDVHVVGASSLAAGHKTLIPELVEALKKWGREDICVVAGGVIPPQDYAFLQERGVAAIYGPGTPMLDSVRDVLNLISQHHD | soluble |
| SNALQPNMRTRVCTVINNNIAHEWTLARIASELLMSPSLLKKKLREEETSYSQLLTECRMQRALQLIVIHGFSIKRVAVSCGYHSVSYFIYVFRNYYGMTPTEYQERSAQRLSNRDSAAS | soluble |
| MSSSLFAPTIETIDYPFPPKPVPLSDAQKADYKARIKQLLIEKDAVLVAHYYTDPEIQALAEETGGCVSDSLEMARFGRDHPAKTLIVAGVKFMGETAKILSPEKTILMPTLEATCSLDLGCPIDKFSAFCDAHPDHTVVVYANTSAAVKARADWVVTSSIALEIVEHLDSEGKKIIWGPDRHLGSYIAKQTGAEMLMWQGDCIVHDEFKANALRDLKSVYPDAAILVHPESPASVVAMADAVGSTSQLIKAAQTMPNERFIVATDRGIFYKMQQAAPGKTLIEAPTGGNGATCKSCAHCPWMAMNGLKAIEASLSNSDKTTHEIFVDEDLRVKALIPLTRMLDFAKTLNMKVKGNA | soluble |
